Assay [1] deals with T1, mouse CD45 on the surface of mouse T cells (mouse, UniProt P06800 26-1293).
T1 construct: whole, on cells
T1 sequence (looked up): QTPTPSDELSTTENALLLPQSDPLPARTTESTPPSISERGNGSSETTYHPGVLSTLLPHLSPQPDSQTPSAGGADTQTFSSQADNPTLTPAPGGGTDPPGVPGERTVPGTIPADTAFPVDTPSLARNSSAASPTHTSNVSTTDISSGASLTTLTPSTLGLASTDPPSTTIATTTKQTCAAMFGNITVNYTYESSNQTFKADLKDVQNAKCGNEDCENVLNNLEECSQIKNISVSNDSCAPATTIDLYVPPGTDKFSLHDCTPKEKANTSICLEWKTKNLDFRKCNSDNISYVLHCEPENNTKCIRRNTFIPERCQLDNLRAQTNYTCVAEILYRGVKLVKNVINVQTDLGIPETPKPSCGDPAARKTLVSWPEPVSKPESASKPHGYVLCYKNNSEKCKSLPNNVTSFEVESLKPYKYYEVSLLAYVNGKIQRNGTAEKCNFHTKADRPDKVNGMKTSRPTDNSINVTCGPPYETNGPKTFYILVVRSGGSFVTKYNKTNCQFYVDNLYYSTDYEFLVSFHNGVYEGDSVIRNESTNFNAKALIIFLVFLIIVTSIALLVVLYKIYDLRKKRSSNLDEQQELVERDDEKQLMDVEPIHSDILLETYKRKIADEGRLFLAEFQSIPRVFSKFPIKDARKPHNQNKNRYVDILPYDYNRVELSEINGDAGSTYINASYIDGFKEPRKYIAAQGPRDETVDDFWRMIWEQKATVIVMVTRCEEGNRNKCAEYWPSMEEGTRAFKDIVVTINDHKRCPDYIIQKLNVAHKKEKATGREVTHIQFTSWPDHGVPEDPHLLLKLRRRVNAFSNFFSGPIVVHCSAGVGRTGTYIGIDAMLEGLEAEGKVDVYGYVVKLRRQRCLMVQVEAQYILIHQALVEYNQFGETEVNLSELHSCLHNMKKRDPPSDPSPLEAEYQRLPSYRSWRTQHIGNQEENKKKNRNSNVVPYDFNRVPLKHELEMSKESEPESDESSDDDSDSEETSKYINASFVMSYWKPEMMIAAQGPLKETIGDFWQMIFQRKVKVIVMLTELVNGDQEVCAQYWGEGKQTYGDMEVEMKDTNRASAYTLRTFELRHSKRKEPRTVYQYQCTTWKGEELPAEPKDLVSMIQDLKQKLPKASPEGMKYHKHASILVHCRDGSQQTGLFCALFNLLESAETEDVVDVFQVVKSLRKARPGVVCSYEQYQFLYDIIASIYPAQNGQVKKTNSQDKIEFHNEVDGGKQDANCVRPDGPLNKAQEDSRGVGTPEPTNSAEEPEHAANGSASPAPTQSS
Description: pulse incubation at 125 nM on activated mouse CD8 T cells, anti-mouse IL-12 staining by flow cytometry (FIG. 32). As to the method:
We evaluated the ability of tethered fusions comprising an antibody specific for mouse CD45 and the mouse scIL-12p70 cytokine to facilitate loading and persistence of IL-12 on the surface of mouse T cells. Prior to incubation with the mouse IL12-TFs, mouse CD8 T cells were isolated from Pmel mice, activated for two days using antibodies against mouse CD3 and CD28 receptors, and then expanded in the presence of IL-21 for two days. Briefly, isolated CD8 T cells were incubated in full medium (containing RPMI 1640, 10% FBS, insulin-transferrin-selenium, penicillin/streptomycin, and 50 uM beta-mercaptoethanol) in Nunc HighBind plates that were previously coated with antibodies against mouse CD3 and CD28 receptors; the CD3 and CD28 antibodies were coated at concentrations of 0.5 ug/mL and 5 ug/mL, respectively. After approximately 24 hr incubation on the antibody-coated plates IL-2 and IL-7 were added to a final concentrations of 20 ng/mL and 0.5 ng/mL respectively. After a second day of incubation, cells were recovered from the antibody-coated plates and diluted to a density of approximately 200,000 cells/mL into medium containing IL-21 at a final concentration of 20 ng/mL. […] On Days 0, 1, 3, and 5 after the pulse incubation cells were immunostained using antibodies specific to mouse IL-12 and analyzed on a FACSCelesta using Diva Software; data was analyzed using FlowJo. […]
On the technique in general: Flow cytometry measures light scatter and fluorescence of single cells or particles in a stream.

In assay [2] the target is T2, human CD45 receptor on the surface of human T cells (human, UniProt P08575 26-1306).
T2 construct: whole, on cells; also called cellular CD45; leukocyte common antigen
T2 sequence (looked up): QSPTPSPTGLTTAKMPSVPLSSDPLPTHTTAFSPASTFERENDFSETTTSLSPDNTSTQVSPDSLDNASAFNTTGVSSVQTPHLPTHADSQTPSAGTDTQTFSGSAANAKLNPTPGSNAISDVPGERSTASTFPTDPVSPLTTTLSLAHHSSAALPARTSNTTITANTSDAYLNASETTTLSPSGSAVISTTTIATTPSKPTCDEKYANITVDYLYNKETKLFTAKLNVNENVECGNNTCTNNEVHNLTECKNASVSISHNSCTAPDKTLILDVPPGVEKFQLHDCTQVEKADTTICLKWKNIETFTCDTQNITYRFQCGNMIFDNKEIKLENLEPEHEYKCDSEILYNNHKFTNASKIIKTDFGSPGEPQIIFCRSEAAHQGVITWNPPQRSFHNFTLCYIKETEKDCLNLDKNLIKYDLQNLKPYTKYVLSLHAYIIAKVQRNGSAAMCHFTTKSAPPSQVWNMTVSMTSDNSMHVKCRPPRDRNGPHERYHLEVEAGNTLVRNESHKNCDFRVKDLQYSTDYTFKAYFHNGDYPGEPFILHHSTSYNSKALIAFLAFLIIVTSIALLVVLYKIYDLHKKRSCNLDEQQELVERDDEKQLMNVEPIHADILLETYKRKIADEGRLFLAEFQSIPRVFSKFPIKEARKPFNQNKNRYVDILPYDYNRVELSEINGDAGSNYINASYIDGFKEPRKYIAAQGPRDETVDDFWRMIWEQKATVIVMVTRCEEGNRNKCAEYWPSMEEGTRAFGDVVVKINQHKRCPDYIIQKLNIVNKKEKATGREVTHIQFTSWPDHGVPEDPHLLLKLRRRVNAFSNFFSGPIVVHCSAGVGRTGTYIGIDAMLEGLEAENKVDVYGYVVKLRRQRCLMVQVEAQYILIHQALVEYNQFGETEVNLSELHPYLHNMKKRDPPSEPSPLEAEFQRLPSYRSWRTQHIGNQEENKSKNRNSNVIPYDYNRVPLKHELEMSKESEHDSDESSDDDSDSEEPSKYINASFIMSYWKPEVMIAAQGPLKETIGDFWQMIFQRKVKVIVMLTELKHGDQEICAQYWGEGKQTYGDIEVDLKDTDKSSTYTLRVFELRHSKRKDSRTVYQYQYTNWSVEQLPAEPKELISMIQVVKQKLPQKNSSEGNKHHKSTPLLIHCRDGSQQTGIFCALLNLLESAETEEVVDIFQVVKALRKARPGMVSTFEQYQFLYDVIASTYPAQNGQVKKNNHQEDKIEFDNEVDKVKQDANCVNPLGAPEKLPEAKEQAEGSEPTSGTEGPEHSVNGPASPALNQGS
Description: flow cytometry titration on activated primary human CD8 T cells, anti-human IgG-Fc detection. From the text:
To evaluate whether anti-CD45 antibodies other than BC8 are capable of generating IFMs with improved potency, we evaluated two additional anti-CD45 monoclonal antibodies (mAb clones 9.4 and 4B2). We first evaluated the binding affinities of chimeric IgG forms of these antibodies to CD45 expressed on the surface of activated CD8 T cells. The chimeric antibodies each comprise mouse variable domains and human constant region (human constant kappa domain and human IgG4 containing an S228P mutation to stabilize the IgG4 hinge region). For comparison with previous results we evaluated these antibodies alongside chBC8, hBC8(23), and a non-binding variant hBC8-null. The humanized BC8 antibody consists of variable domains containing CDR regions grafted from BC8, and the hBC8-null variant contains an SGGGS substitution in the heavy-chain CDR3, which ablates binding to CD45 (FIG. 10A). […]
Cell binding assay. […] Cells were washed with MACS buffer (PBS, 2% FBS, 1 mM EDTA) three times, and antibody binding was detected using a PE-conjugated anti-human IgG-Fc antibody (BioLegend, cat. no. HP6017) for 20 min. at 4° C. […]

B1: chM1Fab-M1scFv-scIL-12p70 (other)
heavy: QVNLLQSGAALVKPGASVKLSCKASGYTFTDYYIHWVKQSHGKSLEWVAYINPDRDYTNYNEKFKSKATLTVDKSTNTAYMELSRLTSEDSATFYCTRRLYDGAYYYSWFAYWGQGTLVTVSSASTKGPSVFPLAPSSKSTSGGTAALGCLVKDYFPEPVTVSWNSGALTSGVHTFPAVLQSSGLYSLSSVVTVPSSSLGTQTYICNVNHKPSNTKVDKKVEPKSCGGGGSGGGGSGGGGSQVNLLQSGAALVKPGASVKLSCKASGYTFTDYYIHWVKQSHGKSLEWVAYINPDRDYTNYNEKFKSKATLTVDKSTNTAYMELSRLTSEDSATFYCTRRLYDGAYYYSWFAYWGQGTLVTVSSGGGGSGGGGSGGGGSGGGGSDIQMTQSPHSLSASLGETVSIECLASEGISNYLAWYQQKPGKSPQLLIYYGSRLQDGVPSRFSGSGSGTQYSLRITNMQPEDEGVYYCQQGYKYPYTFGAGTKLELK
light: DIQMTQSPHSLSASLGETVSIECLASEGISNYLAWYQQKPGKSPQLLIYYGSRLQDGVPSRFSGSGSGTQYSLRITNMQPEDEGVYYCQQGYKYPYTFGAGTKLELKRTVAAPSVFIFPPSDEQLKSGTASVVCLLNNFYPREAKVQWKVDNALQSGNSQESVTEQDSKDSTYSLSSTLTLSKADYEKHKVYACEVTHQGLSSPVTKSFNRGECGGGGSGGGGSGGGGSMWELEKDVYVVEVDWTPDAPGETVNLTCDTPEEDDITWTSDQRHGVIGSGKTLTITVKEFLDAGQYTCHKGGETLSHSHLLLHKKENGIWSTEILKNFKNKTFLKCEAPNYSGRFTCSWLVQRNMDLKFNIKSSSSSPDSRAVTCGMASLSAEKVTLDQRDYEKYSVSCQEDVTCPTAEETLPIELALEARQQNKYENYSTSFFIRDIIKPDPPKNLQMKPLKNSQVEVSWEYPDSWSTPHSYFSLKFFVRIQRKKEKMKETEEGCNQKGAFLVEKTSTEVQCKGGNVCVQAQDRYYNSSCSKWACVPCRVRSGGGGSGGGGSGGGGSGGGGSRVIPVSGPARCLSQSRNLLKTTDDMVKTAREKLKHYSCTAEDIDHEDITRDQTSTLKTCLPLELHKNESCLATRETSSTTRGSCLPPQKTSLMMTLCLGSIYEDLKMYQTEFQAINAALQNHNHQQIILDKGMLVAIDELMQSLNHNGETLRQKPPVGEADPYRVKMKLCILLHAFSTRVVTINRVMGYLSSA
As for B1, the binding result in assay [1] was “binds”.

B2: hBC8-null humanized BC8 antibody with SGGGS substitution in CDR-H3 (IgG form) (antibody, V domains shown)
VH: EVQLVESGGGLVQPGGSLRLSCAASGFDFSRYWMSWVRQAPGKGLEWIGEINPTSSTINFADSVKGRFTISRDNAKNSLYLQMNSVRDEDTAVYYCARGSGGGSGDAMDYWGQGTLVTVSS
VL: EIVLTQSPATLSLSLGERATISCRASKSVSTSGYSYLHWYQQKPGQAPKLLIYLASNRATGVPARFSGSGPGTDFTLTISSLEPEDFATYYCQHSRELPFTFGQGTKLEIK
notes: constant regions of the tested antibody not spelled out; also called hBC8(23)-null
As to B2, the binding result in assay [2] is listed as “no binding (tested: 500 nM)”.
